The source of these data is publication PMC2832797 (Biochemistry, 2010).

In the test the target is N-terminal His-tagged ubiquitin (15N-labelled) (UniProt P0CG48 1-76, 15N-labelled). In words: NMR titration.

B1: N-terminal His-tagged human alpha4 (amino acid residues 1-222) (domain or fragment, UniProt P78318 1-222, looked up)
chain: MAAEDELQLPRLPELFETGRQLLDEVEVATEPAGSRIVQEKVFKGLDLLEKAAEMLSQLDLFSRNEDLEEIASTDLKYLLVPAFQGALTMKQVNPSKRLDHLQRAREHFINYLTQCHCYHVAEFELPKTMNNSAENHTANSSMAYPSLVAMASQRQAKIQRYKQKKELEHRLSAMKSAVESGQADDERVREYYLLHLQRWIDISLEEIESIDQEIKILRERD
For orientation: Kd means the concentration at which binding is half-saturated. Low values mean a tighter complex, high ones a looser complex. B1: the Kd is above 100 µM.
